The values that follow come from patent US9415135B2, “Methods and compositions for stabilizing the myocardium” (The Regents of the University of California, priority 2002, dated 2016).

One test deals with T1, MMP-1 (Homo sapiens, UniProt P03956).
T1 sequence (P03956 100-469): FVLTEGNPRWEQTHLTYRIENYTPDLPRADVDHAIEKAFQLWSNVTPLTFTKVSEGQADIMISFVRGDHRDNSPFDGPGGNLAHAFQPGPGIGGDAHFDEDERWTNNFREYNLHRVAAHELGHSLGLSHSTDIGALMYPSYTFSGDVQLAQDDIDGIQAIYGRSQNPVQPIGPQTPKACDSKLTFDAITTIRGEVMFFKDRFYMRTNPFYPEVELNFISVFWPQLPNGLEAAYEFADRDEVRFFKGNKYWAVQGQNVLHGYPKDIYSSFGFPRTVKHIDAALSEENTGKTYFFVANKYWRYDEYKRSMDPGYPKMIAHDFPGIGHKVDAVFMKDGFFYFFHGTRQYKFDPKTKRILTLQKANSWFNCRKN
The conditions noted are these: MMP-13 to MMP-1; cited from earlier work.

The target in the next test is MMP-9 (Homo sapiens, UniProt P14780). As to conditions: MMP-13 to MMP-9; cited from earlier work.
Sequence of MMP-9 (P14780 94-707, species assumed): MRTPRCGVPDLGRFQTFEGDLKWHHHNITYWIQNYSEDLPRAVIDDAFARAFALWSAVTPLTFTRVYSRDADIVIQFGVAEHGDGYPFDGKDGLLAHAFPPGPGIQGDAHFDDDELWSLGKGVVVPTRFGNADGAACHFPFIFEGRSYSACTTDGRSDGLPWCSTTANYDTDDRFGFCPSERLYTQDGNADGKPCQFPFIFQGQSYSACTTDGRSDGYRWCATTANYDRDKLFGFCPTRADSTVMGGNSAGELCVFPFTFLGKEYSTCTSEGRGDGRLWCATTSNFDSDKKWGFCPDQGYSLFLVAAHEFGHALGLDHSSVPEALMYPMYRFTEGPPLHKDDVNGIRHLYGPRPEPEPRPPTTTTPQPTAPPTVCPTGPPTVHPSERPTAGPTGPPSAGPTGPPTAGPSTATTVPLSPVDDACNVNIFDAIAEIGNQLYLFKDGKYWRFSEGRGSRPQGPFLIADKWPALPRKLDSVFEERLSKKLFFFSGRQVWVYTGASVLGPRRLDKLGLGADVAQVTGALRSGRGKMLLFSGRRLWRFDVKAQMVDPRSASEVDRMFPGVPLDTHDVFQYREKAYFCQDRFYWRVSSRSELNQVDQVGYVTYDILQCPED
In a further test the target is MMP-3 (Homo sapiens, UniProt P08254). The conditions noted are these: MMP-13 to MMP-3; cited from earlier work.
Sequence of MMP-3 (P08254 100-477, species assumed): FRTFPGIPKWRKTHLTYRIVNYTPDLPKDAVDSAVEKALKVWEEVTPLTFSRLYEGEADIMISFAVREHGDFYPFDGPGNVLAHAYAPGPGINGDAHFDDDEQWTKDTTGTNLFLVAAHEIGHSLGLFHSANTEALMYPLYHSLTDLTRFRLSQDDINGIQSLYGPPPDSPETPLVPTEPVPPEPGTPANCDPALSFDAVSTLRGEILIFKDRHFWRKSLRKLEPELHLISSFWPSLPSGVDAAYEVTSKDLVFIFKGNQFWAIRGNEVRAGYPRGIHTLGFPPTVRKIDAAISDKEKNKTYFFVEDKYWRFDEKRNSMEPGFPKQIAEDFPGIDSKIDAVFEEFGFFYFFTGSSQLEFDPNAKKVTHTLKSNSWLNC
Test [1] deals with neural stem cells (NSCs) from adult hippocampus. In words: NSC adhesion and proliferation on peptide-modified IPNs (CyQUANT). It is filed as cell-based, rat. As for the experimental part:
Neural stem cells were isolated from the hippocampi of adult female Fischer 344 rats as previously described (Lai, K., et al., Nat Neurosci, 6(1):21-7 (2003)). Cells at (200-10,000 cells/well) were seeded onto peptide-modified IPNs and laminin-modified culture wells and incubated (37° C., 5% CO2) in serum-free media consisting of DMEM/Hams F-12 medium with N−2 supplement. These media conditions were supplemented with various soluble factors to modulate cell behavior: 20 ng·ml^−1 basic fibroblast growth factor (bFGF) for cell proliferation or 1 μM retinoic acid with 5 μM forskolin for neuronal differentiation. Wells were rinsed every 48 hrs with fresh media.
NSCs isolated from the adult hippocampus were seeded onto bsp-RGD(15)-modified IPNs at various cell densities over four orders of magnitude. […] 18(2):337-45 (2002)). Such spheres provide less precise control over the cellular microenvironment, due in part to spatial gradients in signaling and nutrients and internal necrosis.
For quantitative assays of proliferation, the NSCs were seeded at 1000 cells per well on various surfaces and grown for 3-6 days, and cell number was determined using a fluorescent dye that binds to nucleic acids, CyQUANT (Molecular Probes, Eugene, Oreg.). Briefly, cells grown on a particular surface for a fixed duration were washed once with phosphate buffer saline and lysed in the manufacturer's buffer with dye. Next, the fluorescent intensity of resulting solution was measured. […] Any increase in cell number on the negative control bsp-RGE(15)-modified IPNs reflected growth of weakly adherent neurospheres (FIG. 2d-e). About 10 pmol·cm^−2 bsp-RGD(15) was needed to support proliferation of NSCs, corresponding to ˜10^6 ligands per cell for the 10 μm diameter cells.

For test [2] the test system is unchanged. Kind of test: NSC phenotype and differentiation on peptide-modified IPNs (qRT-PCR, immunofluorescent staining). The test is classed as cell-based, rat. As to conditions: 1 μM retinoic acid with 5 μM forskolin. The procedure: Neural stem cells were isolated from the hippocampi of adult female Fischer 344 rats as previously described (Lai, K., et al., Nat Neurosci, 6(1):21-7 (2003)). Cells at (200-10,000 cells/well) were seeded onto peptide-modified IPNs and laminin-modified culture wells and incubated (37° C., 5% CO2) in serum-free media consisting of DMEM/Hams F-12 medium with N-2 supplement. These media conditions were supplemented with various soluble factors to modulate cell behavior: 20 ng·ml^-1 basic fibroblast growth factor (bFGF) for cell proliferation or 1 μM retinoic acid with 5 μM forskolin for neuronal differentiation. Wells were rinsed every 48 hrs with fresh media. […] To assay phenotype, two methods were used: quantitative real time PCR (qRT-PCR) and immunofluorescent staining. […] Quantitative real time PCR was used as a complementary technique to accurately quantify specific cDNA concentrations in various cDNA samples from cells grown on IPNs and laminin (using a Bio-Rad Laboratories iCycler). GFAP expression levels were quantified as a marker for astrocytic differentiation of the progenitor cells. β-Tubulin-III was used as a marker for neurons. […] The plasmids were linearized by restriction digest and quantified by absorbance, and tenfold serial dilutions from 1 ng/μL to 10^-9 ng/μL were prepared to generate a standard curve. […]
(In qPCR the cycle at which signal appears reflects the starting amount.)

Another test concerns the target αvβ3 integrin (Homo sapiens, UniProt P05106+P06756). As to conditions: high affinity; read-out: IC50, αvβ3 integrin binding; cited from earlier work.
The next test concerns the target αvβ5 integrin (Homo sapiens, UniProt P06756+P18084). The conditions noted are these: low affinity; cited from earlier work.
Another test concerns the target αIIBβ3 integrin (Homo sapiens, UniProt P05106+P08514). As to conditions: low affinity; cited from earlier work.

Sequence of αIIBβ3 integrin (P08514 32-887 limits assumed): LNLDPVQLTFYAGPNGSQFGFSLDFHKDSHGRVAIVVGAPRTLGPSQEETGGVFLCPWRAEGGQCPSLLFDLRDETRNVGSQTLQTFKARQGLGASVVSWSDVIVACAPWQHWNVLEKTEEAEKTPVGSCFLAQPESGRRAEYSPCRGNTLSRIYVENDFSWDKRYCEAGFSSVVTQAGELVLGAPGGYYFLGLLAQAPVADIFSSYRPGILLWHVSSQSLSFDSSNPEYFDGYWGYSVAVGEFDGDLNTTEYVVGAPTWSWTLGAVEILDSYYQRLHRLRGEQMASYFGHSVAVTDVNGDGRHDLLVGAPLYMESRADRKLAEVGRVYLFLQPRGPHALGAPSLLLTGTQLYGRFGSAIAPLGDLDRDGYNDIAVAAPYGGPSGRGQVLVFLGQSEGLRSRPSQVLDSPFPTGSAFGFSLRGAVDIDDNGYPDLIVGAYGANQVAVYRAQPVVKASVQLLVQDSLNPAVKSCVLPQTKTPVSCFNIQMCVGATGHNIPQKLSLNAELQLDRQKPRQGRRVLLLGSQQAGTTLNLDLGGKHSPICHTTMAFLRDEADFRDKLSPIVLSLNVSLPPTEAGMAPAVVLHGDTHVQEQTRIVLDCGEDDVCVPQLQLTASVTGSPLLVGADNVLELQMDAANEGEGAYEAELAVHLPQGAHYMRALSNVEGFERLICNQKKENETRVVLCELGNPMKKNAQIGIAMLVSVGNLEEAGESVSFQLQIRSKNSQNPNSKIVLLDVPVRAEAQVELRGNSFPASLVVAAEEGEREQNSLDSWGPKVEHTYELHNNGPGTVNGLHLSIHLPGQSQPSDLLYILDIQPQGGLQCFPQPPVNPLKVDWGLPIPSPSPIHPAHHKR
Sequence of αIIBβ3 integrin (P08514 891-1039 partner limits assumed): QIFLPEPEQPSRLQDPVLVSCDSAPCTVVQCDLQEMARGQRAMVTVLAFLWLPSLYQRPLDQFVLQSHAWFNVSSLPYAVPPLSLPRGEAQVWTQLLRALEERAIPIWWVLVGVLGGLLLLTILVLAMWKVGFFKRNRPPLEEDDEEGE
Sequence of αIIBβ3 integrin (P05106 27-788): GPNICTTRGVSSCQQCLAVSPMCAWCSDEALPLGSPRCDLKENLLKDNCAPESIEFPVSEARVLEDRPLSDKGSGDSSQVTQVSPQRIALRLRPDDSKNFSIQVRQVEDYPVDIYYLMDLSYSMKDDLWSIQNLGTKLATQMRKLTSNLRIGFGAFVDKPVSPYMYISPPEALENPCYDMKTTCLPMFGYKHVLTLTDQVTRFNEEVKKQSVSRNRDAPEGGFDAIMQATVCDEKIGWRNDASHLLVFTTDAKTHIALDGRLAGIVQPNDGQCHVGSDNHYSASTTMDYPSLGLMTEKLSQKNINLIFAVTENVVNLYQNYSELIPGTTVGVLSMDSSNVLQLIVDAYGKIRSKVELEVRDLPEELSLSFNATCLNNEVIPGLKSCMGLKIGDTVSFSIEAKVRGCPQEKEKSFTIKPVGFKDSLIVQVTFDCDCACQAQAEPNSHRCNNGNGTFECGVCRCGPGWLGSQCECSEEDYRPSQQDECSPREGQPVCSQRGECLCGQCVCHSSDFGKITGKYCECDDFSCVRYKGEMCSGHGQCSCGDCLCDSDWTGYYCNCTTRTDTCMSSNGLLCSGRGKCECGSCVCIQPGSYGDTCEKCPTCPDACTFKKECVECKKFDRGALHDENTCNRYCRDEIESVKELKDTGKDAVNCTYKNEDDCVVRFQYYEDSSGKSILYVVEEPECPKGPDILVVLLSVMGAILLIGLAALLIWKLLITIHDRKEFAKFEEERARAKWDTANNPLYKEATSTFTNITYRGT
Sequence of αvβ3 integrin (P06756 31-889 limits assumed): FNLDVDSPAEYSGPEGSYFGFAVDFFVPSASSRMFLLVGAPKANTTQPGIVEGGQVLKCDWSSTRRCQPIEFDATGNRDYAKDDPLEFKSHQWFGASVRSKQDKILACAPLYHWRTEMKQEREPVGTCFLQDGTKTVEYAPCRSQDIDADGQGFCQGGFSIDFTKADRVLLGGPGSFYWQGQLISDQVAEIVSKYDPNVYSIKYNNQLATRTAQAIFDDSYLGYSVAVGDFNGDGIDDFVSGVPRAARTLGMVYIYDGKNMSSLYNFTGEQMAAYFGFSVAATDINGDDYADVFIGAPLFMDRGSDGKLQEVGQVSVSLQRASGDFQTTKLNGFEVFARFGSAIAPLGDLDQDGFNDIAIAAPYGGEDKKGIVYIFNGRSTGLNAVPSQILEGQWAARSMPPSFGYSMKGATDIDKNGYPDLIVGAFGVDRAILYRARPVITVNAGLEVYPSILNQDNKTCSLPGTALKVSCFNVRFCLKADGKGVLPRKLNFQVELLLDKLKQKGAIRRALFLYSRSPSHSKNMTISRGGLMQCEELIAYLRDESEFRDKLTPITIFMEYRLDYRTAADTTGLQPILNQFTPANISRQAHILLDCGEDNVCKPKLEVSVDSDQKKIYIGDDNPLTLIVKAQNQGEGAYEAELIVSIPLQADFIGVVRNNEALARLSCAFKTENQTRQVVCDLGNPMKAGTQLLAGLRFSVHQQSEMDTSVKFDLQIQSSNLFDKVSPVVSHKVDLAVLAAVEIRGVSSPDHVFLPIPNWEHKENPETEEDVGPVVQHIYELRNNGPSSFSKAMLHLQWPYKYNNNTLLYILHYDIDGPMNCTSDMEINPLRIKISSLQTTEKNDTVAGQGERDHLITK
Sequence of αvβ3 integrin (P06756 891-1048 partner limits assumed): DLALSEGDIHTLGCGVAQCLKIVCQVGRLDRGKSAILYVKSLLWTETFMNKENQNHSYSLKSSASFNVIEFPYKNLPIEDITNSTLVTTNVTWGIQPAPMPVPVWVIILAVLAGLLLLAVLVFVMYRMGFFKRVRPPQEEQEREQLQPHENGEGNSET
Sequence of αvβ3 integrin (P05106 27-788): as the sequence (P05106 27-788) above
Sequence of αvβ5 integrin (P06756 31-889 limits assumed): as the sequence (P06756 31-889 limits assumed) above
Sequence of αvβ5 integrin (P06756 891-1048 partner limits assumed): as the sequence (P06756 891-1048 partner limits assumed) above
Sequence of αvβ5 integrin (P18084 24-799): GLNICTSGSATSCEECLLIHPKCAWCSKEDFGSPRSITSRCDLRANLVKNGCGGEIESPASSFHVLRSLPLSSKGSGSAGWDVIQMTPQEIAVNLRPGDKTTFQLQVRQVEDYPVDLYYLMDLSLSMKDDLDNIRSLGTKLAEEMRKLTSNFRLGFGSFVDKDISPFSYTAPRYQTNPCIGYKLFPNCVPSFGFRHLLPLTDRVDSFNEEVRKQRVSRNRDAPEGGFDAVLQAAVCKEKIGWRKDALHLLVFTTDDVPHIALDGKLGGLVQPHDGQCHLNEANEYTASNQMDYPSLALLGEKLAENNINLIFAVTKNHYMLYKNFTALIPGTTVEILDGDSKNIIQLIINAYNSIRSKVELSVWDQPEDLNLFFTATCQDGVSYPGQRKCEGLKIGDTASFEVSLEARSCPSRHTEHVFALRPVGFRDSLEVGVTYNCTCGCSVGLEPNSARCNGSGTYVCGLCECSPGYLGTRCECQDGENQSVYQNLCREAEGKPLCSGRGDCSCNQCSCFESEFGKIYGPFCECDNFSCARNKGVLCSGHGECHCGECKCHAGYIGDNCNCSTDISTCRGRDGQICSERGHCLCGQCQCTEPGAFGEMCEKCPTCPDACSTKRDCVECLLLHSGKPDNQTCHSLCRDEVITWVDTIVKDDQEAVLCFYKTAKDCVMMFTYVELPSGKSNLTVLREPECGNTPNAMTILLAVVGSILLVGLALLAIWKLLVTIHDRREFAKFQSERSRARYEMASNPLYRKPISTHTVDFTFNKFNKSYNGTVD

“C2-12P3A: literature MMP-13 peptide substrate, P4-P3' G A L G L S L (SEQ ID NO: 26) (GALGLSL; test peptide substrate) [Sample C2-12P3A]”: the “Selectivity (kcat/Km ratio for MMP-13 to MMP-x), MMP-1” value with MMP-1 is 8.3. In addition, the “Selectivity (kcat/Km ratio for MMP-13 to MMP-x), MMP-9” value with MMP-9 is on record as 4.6. In addition, in the test with MMP-3, the “Selectivity (kcat/Km ratio for MMP-13 to MMP-x), MMP-3” value is given as 14.

As to “C2-22: literature MMP-13 peptide substrate, P4-P4' G P R P F N Y L (SEQ ID NO: 24) (GPRPFNYL; test peptide substrate) [Sample C2-22]”, in the test with MMP-1, the “Selectivity (kcat/Km ratio for MMP-13 to MMP-x), MMP-1” value is 180. Besides, the “Selectivity (kcat/Km ratio for MMP-13 to MMP-x), MMP-9” value in the test with MMP-9 was 21. The “Selectivity (kcat/Km ratio for MMP-13 to MMP-x), MMP-3” value in the test with MMP-3 is given as 7.9.

For the substance “C3-16: literature MMP-13 peptide substrate, P4-P4' G P K G V Y S L (SEQ ID NO: 27) (GPKGVYSL; test peptide substrate) [Sample C3-16]”, the “Selectivity (kcat/Km ratio for MMP-13 to MMP-x), MMP-1” value in the test with MMP-1 is reported as 5500. Also, the “Selectivity (kcat/Km ratio for MMP-13 to MMP-x), MMP-9” value with MMP-9 is on record as 2.2. In the test with MMP-3, the “Selectivity (kcat/Km ratio for MMP-13 to MMP-x), MMP-3” value was 3600.

Turning to “C5-27: literature MMP-13 peptide substrate, P4-P4' G P F G F K S L (SEQ ID NO: 25) (GPFGFKSL; test peptide substrate) [Sample C5-27]”, the “Selectivity (kcat/Km ratio for MMP-13 to MMP-x), MMP-1” value in the test with MMP-1 is listed as 2900. Also, in the test with MMP-9, the “Selectivity (kcat/Km ratio for MMP-13 to MMP-x), MMP-9” value is on record as 4.8. Moreover, the “Selectivity (kcat/Km ratio for MMP-13 to MMP-x), MMP-3” value in the test with MMP-3 is recorded as 250.

On to “CGGNGEPRGDTYRAY (15-mer bone sialopeptide sequence; bsp-RGD(15))”, for which the “bsp-RGD(15) surface density needed to support proliferation of NSCs” value in test [1] (grafted on IPN) is “About 10 pmol·cm^−2”.

Take “CGGNGEPRGETYRAY (bone sialopeptide sequence; bsp-RGE(15))”: the “NSC adhesion / attachment” value in test [1] (proliferating or differentiating media conditions) was “did not support attachment”.

With “CP: literature MMP-13 peptide substrate, P4-P4' G P L G M R G L (SEQ ID NO: 23) (GPLGMRGL; test peptide substrate)”, the “Selectivity (kcat/Km ratio for MMP-13 to MMP-x), MMP-1” value in the test with MMP-1 was 820. In the test with MMP-9, the “Selectivity (kcat/Km ratio for MMP-13 to MMP-x), MMP-9” value was 11. Besides, in the test with MMP-3, the “Selectivity (kcat/Km ratio for MMP-13 to MMP-x), MMP-3” value is listed as 1300.

Take “CSRARKQAASIKVAVSADR (lam-IKVAV(19) peptide)”: the NSC proliferation entry in test [1] (proliferating media (bFGF)) is “did not enhance either cell proliferation or differentiation”. Also, the “NSC differentiation into neural lineages” value in test [2] was “did not enhance either cell proliferation or differentiation”.

By IC50 is commonly meant the point on the concentration scale where inhibition reaches its midpoint. On to “H-Glu[cyclo (Arg-Gly-Asp-D-Phe-Lys)]2 [bicyclic RGD peptide reported by Janssen et al]”, for which the half-inhibitory concentration (IC50) is 0.9 nM on αvβ3 integrin, 10 nM at αvβ5 integrin and 10 nM on αIIBβ3 integrin.
